Laboratory results taken from the domain aggregation screens of Martell et al. (2025).

assay: soluble fraction after stress (log2 fold change); higher = more stays soluble; pooled small domains, quantitative proteomics; conditions: stress: 75 degC
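Further: 20 min heating vs room temperature control held 20 min.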

Row | Sequence | soluble fraction (log2)
1 | HMKLSIEDLAAELIRKIEAGDIGNEQGKMPSERELLAIYPVSRYTLRQALNKLSKMGWIYQMQGRGSYIRF | -1.48
2 | HMKLSNELLNAIMLIKKGIRNPTSLAQRLNTDTQYAKNLLEHLKMTGLINEHSRLTSRGLDIFHQK | 0.356
3 | HMKLTEEEFNAKRKAYLDRLETLNDEAVIKATFMEAASGLGLQKGSAEFGDLRKYFVDRIVDIK | 1.01
4 | HMKLTEGETIFLNESDTADWKKIPGIGSVYASRIVKYRNLLGGFVSVNQLREVYGIDDELFAKIYPYI | 0.085
5 | HMKLTESQLHKFTNDAVLAHIRNLIEFKGAFTEDDIEPIIRDRAAVYGIDLEDEDYKKVKTDVEYHFK | -0.0402
6 | HMKLVELVGSPKQIAWAEDIRKNMISYLSALVRKYEAENRPARAEKRAKDMEILSNIKEASWFIENRS | -0.733
7 | HMKMAKTIKEIAEEIGVSKQAVFKKIKQVPLSTEIEKFISTVDGKKLVSVDGENLIKQAFQR | 0.355
8 | HMKMLKAPIPGTIIEVKVNPGQTVNDGDVAVVLEAMKMESDIHFNSSGKVKKIHVNKGDSVQEGDDLIELE | 0.0235
9 | HMKMNRELNQRQIKMLDYLSVNPKTTRKQYTKMMGISFMTSYRDIQELIDKAYIISKGQGRGTYYILAN | -0.709
10 | HMKMQIGEIIRKYRKSNHMTQEEMAERLGVSAPAVNKWENGNSMPDIMLLAPITRLLGISLDELLSFE | -2.26
11 | HMKMSVEEVNLSPRTTNALINNDIKTMKDLVALTDTELRDLKGFGSKAYEEVKEKLSELGLSTQ | 0.503
12 | HMKMSVKNEIISLLEKNRDTSISGQVIADSLNVTRAAVWKAIKVLKEEGYNIDGTPNKGYILLGNN | -1.22
13 | HMKMTFGENLHKLRKIYRLSQEDVASAINLKRSDIAAVEKGDRVLNDEELDKLADFIGIDIVDLL | -0.479
14 | HMKMVSTPTGTRISLTQVKEFISNASFDDMKEILLEVLAWFKAHNLGNPFNYNRAFEFIVAH | -0.256
15 | HMKNELNSKLIISIKEALPPQIKVATYLMDLLSLGREAVYRRIRGDVSFDLEELSIISKALNISIDDVL | -3.9
16 | HMKNESLMLPRDIDYSRVHGLSNEAIQKLQDALPQSLGQASRIEGITPATLSLLLLYLKKNNKRI | -0.00281
17 | HMKNHSTFKSVLSNIEFPINERISGHAIQNPILGLIKADHPNFSSDQYIAISELNFYREKYISNYLLTEI | -3.67
18 | HMKNKIYGTIVSSTSGEETVYKVFQVDSSKDITYLFRPDMIRLAHENNQALEFNEETGRGKRIEMSDLPK | -0.106
19 | HMKNLHLVPNVVGMSAKEAKNTLKSFNIKYKPIYGSSNKYDENYIFNQNPRKGKTIKEQEVVTIYISRGAD | -1.42
20 | HMKNNNIIFSEFLKEVENGRVVEVRIQGNNIQGIMSNGKEFTTYSPNYPNLIEKLTETGVSISAAPL | 0.434
21 | HMKNPLIIGMTKDKIIELIGMPDNIKFLDSSLSKSEVWNYDKFGKKLYIKDEKLYQIENIEE | 0.0985
22 | HMKNSAAKETILAFLKKNGGELFTQMQIIEKFQKMIPAPVLRITLEELLNKGQVEITSKGKYYLSVKGS | -2.08
23 | HMKNSKIVIQKRHNHILELLKQNRTMDVTVLAERLGVTGATIRRDLKKLEQEGTIVRSFGKVSFVG | -2.18
24 | HMKNTVGEYRKLKSTTILYSNSDLTGTKYTYLPNTTVKILKNISSTVDYVYIKATNRYAYINIYAYT | -2.69

Row | Sequence | soluble fraction (log2)
25 | HMKNVENIILEQLKKNIYDDLNNASFEEIILIDAEKSIYKGTIKANYIEYNFKINLSTGEILKWKLK | -1.95
26 | HMKNVSVKMILSPESLGEIQVDLVFSKGKDLEIMLRPETAEVAKLIQSNSASLREQLSLEHKGPLSLNVS | -0.32
27 | HMKNYALHEPMMDRIAKVNALYDAGHTIKYMTARGAVSMVDYYDLTKSQLDSWGAKYHELSVGK | 0.12
28 | HMKNYYEVLGVPRDAAAPDIKRAFRKLAKQFHPDHNPGDAKAEERFKLVSQAYDVLGDEEKRKLYDQFGE | 0.0891
29 | HMKNYYSILGVTPDSSEAEIKSAYRRLARKFHPDVNPDGASRFKDISEAYETLSDAKKRFQYDTINGF | -0.0709
30 | HMKPATSITFIPSERPDLVEQLSKITFDKKDSLYENYINLNWLTFEAISVYMREGDIIGFST | -0.148
31 | HMKPDAAKREQLIDIALRLFSQQGIARTSLNAIAREAGVTPAMLHYYFNSREQLLDVMIEERFL | -3
32 | HMKPDIETQLKKYRYKVSVSKKIKPYMVFSDKTLSELLTKSPTNLKELEDINGFGPVKVQEYGAAILEILK | -1.19
33 | HMKPDSEFTSQDLWQNDLAGTGSAAYRRDKMGALLGIGYGNAKRFLERLNSYGVTRSEFDEALAQLGE | -0.188
34 | HMKPEDIALLEEIRDLLKEKKSVIVNLEYVNKDVARRIVDFISGGVFALNGHIQKVSNSIFLVAPMN | -0.00621
35 | HMKPMNNNDILRRLRYTFDLSDDKMMETFALGGYEANRSEISDWLKKDDHPEQKSLYDKSLSHFLNGFIV | -0.178
36 | HMKPPVQVIGKAVVTASSLNVRTGPGTGHGIITSLPRNTEVELLEQQGEWYKIRRGSTVGYVHGGYLKIN | -0.311
37 | HMKPRISMITLGVKDLNKSIEFYGGGLGFPRKKTEPEIAIFKLNGSWLSLYNRGLLAEDANVS | -0.184
38 | HMKPSKYTLAIDSIPVHVTRKQMKSIRLRVTPLGEVRVSAPYGVKDSEIVEMVRSRKLWIESQQRA | -2.34
39 | HMKPSTETLYATARINVRAAADTSAEKLGSIEMGEAVVRTGTDGDWSIIEYNGSTGYVKSEYLTANAGDAT | 0.232
40 | HMKPSVEIKVNGGTGAGVVKKGGSITVTANEPAEGKVFTGWQDESGKIVSTQKEYTFTVAEGTTLTAVYED | ≥ 1.04
41 | HMKPTGWVRGDMGVVDKGQLSITQGTVNVRSGPGLSYEILDQVRRGDRFPVIKSQSGWHNISM | 0.249
42 | HMKPTSLLGIERYLGSGLIRGVGPSTAKQIVEHFGMETMEVLTEHPERLQEVHGMGRKRWRQIAESFQEQQ | -0.869
43 | HMKPVTVINFVGMTEEKAMTEAEKLGLVVGASSSEYSDEPAGTVIRQSISVSTEAKTGDNIYFTVSKGPE | 0.677
44 | HMKQETLNEIGTKIRKLRESKNLSIQEFADKLEMEYNNVIRIEKGRTNFTIGTLVKIANSLEVNLKDI | -2.41
45 | HMKQFVVQYYGIDGEVINSVYKNGMSDLTSYEPEKIDGKNFKGWSLSEDSKKVIDENYRINSDVNLYAVYT | 0.758
46 | HMKQHPTIDLQIGQKLHYKEDVFEVTRFAKDKNGQDMVILKDPSIGSGIEIPWYRSKLEEIIESGQYKIT | 0.361
47 | HMKQIEEIIARYTNENTPLMMILSDVQREYGYIPLDVQELISEKTGIPVAEIYGVVTFYSFFSL | -0.676
48 | HMKQISQNIHRLRKEKGMSQEQLAQALHVTRQTVSAWERGIAQPSLDVLGQIAQLLGVEPERLLYGE | 0.288

Row | Sequence | soluble fraction (log2)
49 | HMKQLQIPYSFAKRHGVLLRYEGDQAFIVRRDNTSMLALQEARRLLGHPAHYLLYSEQEFNQLLSASFA | -2.69
50 | HMKQLVVVPRVVSLSEGKAREDVGDRGLVVDRVEMDTLRTPYENTVTRQEPAADSRVPVGTRVTLWISPGV | 0.567
51 | HMKQNSDDGEIRKIIIEILDNNLDNVNKYKSGRTNVLDFFVGQVMKQTRGQANPELTRSILTEELSN | -0.169
52 | HMKQQTRAELLDEFAKAHAERGLYFNRDYEQGEIQALQPDKAREYLQSALEARTERQQASEQDR | 0.262
53 | HMKQTDQELAEMLRFRAAQRGLLMSDEVVNYVMTRVERSAKSLIMLLDRIDRAALAQARPVTIPLINEL | -0.523
54 | HMKQVEVPRLVGLTLREAQAVLGQVGLRIGLISRAALLASPREQIVEQIPVAGERNIATPYVNLLVNVP | -0.895
55 | HMKRDEYIAQLKKYLKRLPKKEYDSAIEYFTEYFDEAGPERELEVIQELGQPKEAAKEMLLQLLNE | -0.105
56 | HMKRDNETRRRIVAAAEELFRAKGLDGVNMRELAEMAGVNKGLLHYYFKTKQALFREILVGQMAL | -1.31
57 | HMKRDRLYGITIYLLNHGRTSAKTLAEYFEVSVRTIQRDMDALSMAKIPIIAYPGSDGGYEIQEGYRL | -3.03
58 | HMKRDYELPAFIETYLKKNHVAIDTKSAAMIAEHIGADLSRLISELDKVMISLPDDDRRVTPDVVEREI | -0.0791
59 | HMKREETLKALATKNANYVARSGRRYSFEPMNPYERRIIHTAVQEIEGVTSRSIGSGMDRRVLIEPEGGV | -0.322
60 | HMKRELFVEPGMRLEHTPSKTSGPVVSFIEGVIVVIKDQLGSEHRFDPVPGFFRHEGDLVALRSPLL | -0.996
61 | HMKRIDTILETFAKVHKHIPSKLILLGDGPELLDMRKIARSLHIEDDVLFLGKQDQVSKFYQMADLVLLL | -0.314
62 | HMKRIHLSDEEKTDLESLHYSSNDGKQRDRIKAVLLRSEGWTVPMISQALRIHETTVTRYLNDYREGKLKN | -0.724
63 | HMKRITKKELKQAIVDVFADKPGQSFNYKQLATIIGIKDDPTRRMITDILYELVQEERIVELYRGKFKMEM | -2.58
64 | HMKRLPFSFAKRFGVVVEDGEPPIVHHRDGASAETLLEVRRRLGQVFTLQRHDAEAFERLLTQAYQR | -1.15
65 | HMKRPEPESPEAERRSQRAADWLVRRDRGLTAAEQDEFLQWLAIDPRHGEWFALHRSVVGEFSA | -0.081
66 | HMKRQDFEFLVNLLRQNAGWDFDEEQYFVVDKKISNFIREKGYASVEDLIDELKVGAKPLISQVVESLAL | -0.576
67 | HMKRTFGEISPLPSGRYRARYRGPDGERYPAPVTFLSRMDAETWLSAQARKVSSGDWTPPVGVVA | -0.34
68 | HMKRWHVGDPIDALTAAGKVPSWSTIRQRFWKTIAALYPDIEQSERLQRGLAMLDEAGTSIELHHP | -1.03
69 | HMKRYLFEEVLAFLKHNDGKSFNYKQLGAAMEIDNESDRFALLETLEELKHQGFVIETDIGKYAAKE | -0.868
70 | HMKSDELTKRRRLQIIEAAERSFRKRGFHATTLREIAAEFGMSVGHIYNYFSGKDAILEALIHQKIDD | -1.01
